Assay results from US20250101453A1, “METHODS OF PARTHENOGENIC HAPLOID INDUCTION AND HAPLOID CHROMOSOME DOUBLING” (PIONEER HI-BRED INTERNATIONAL, INC., priority 2022, published 2025).
“And” between values parts separate entries of the source, which are not always exact repeats. Equal entries are not always repeated.

Assays:
[1] = chemical chromosome doubling, Frei et al. 2018; cited from earlier work
[2] = tested on: Background 1 (PHR03 x PH184C); test: Haploid induction cross, haploid embryos scored by absence of paternal YFP, Background 1; assay type: in vivo, Zea mays
Protocol: (§1) The ears of the transgenic female parent plants were shoot-bagged before silk emergence to avoid any foreign pollen contamination. The silks of the donor ears were pollinated with viable pollen grains collected from the anthers of a haploid inducer parent plant, constituting a “haploid induction cross”.
(§2) Immature ears were harvested approximately 18 days after pollination, surface sterilized in 30% Clorox bleach plus 0.5% Micro detergent for 20 minutes and washed twice with sterile water. Immature embryos obtained from each donor ear comprising a biological replicate for a unique transformation event were plated on a petri dish containing 605B resting medium and incubated at 28° C. under dark conditions for 12-24 hours.
Using the methods described in Examples 2 and 3, T0 transgenic plants hemizygous for RV048759 (SEQ ID NO: 16) or RV027603 (SEQ ID NO: 7) were obtained from a population of transformed immature diploid embryos from two different genetic backgrounds. The first genetic background (hereinafter “Background 1”) was “PHR03 x PH184C” and the second genetic background (hereinafter “Background 2”) was X08D492.
The T0 transgenic plants hemizygous for RV048759 were used as female parent plants and the donor ears fertilized with pollen provided by a pollen donor. The silks of the donor ears were pollinated with viable pollen grains collected from the anthers of a haploid inducer parent plant, constituting a “haploid induction cross”.
(§3) A total of 13 unique events for RV048759 and a total of 7 unique events for RV027603 were analyzed in Background 1. A total of 13 unique events for RV048759 and a total of 11 unique events for RV027603 were analyzed in Background 2.

[3] = tested on: Background 2 (X08D492); test: Haploid induction cross, haploid embryos scored by absence of paternal YFP, Background 2; assay type: in vivo, Zea mays
Protocol: as §1, §2
Using the methods described in Examples 2 and 3, T0 transgenic plants hemizygous for RV048759 (SEQ ID NO: 16) or RV027603 (SEQ ID NO: 7) were obtained from a population of transformed immature diploid embryos from two different genetic backgrounds. The first genetic background (hereinafter “Background 1”) was “PHR03 x PH184C” and the second genetic background (hereinafter “Background 2”) was X08D492. […]
as §3

[4] = tested on: unfertilized egg cell; test: In vivo genetic chromosome doubling: fertility (mature seed set) of self-pollinated regenerated T1 (D0) plants, Example 3; set-up: species or system Zea mays
Source text: Using the methods described in Example 2, T0 transgenic plants hemizygous for RV027603 (SEQ ID NO: 7) were obtained from a population of transformed immature diploid embryos. […] Using methods known in the art, single copy T0 plants were identified and grown to maturity. Upon the transition to flowering, the T0 plants were used as female parent plants to provide a donor ear.
as §1, §2
A total of 8 unique events for RV027603 were analyzed. Per event, two groups of haploid embryos were obtained given the hemizygous T-DNA from RV027603 inherited from the maternal plant. A first group of haploid embryos lacking inheritance of T-DNA from RV027603 was used to regenerate “null T1 plants”. A second group of haploid embryos that inherited a T-DNA from RV027603 was used to regenerate “hemizygous T1 plants”. No artificial chromosome doubling treatment, for example a chemical chromosome doubling treatment or agent, was provided to any of the haploid embryos during the experiment.
To assess the efficacy of in vivo genetic chromosome doubling in response to ZM-ODP2-(266-669) activity, the proportion of regenerated T1 plants capable of producing intact, mature seed was evaluated. The ear of each D0 (T1) plant for both the “null” or “hemizygous” T1 groups were shoot-bagged before silk emergence to avoid any foreign pollen contamination. The silks of the ears for each D0 (T1) plant were self-pollinated with pollen grains collected from the anthers of each D0 (T1) plant. After self-fertilization, the plants were grown to physiological maturity, the ears harvested, and D1 (T2) seed was counted per donor ear from each null and hemizygous plant per group per event. Seed counts for fertile plants were sorted into three categories: a low-range consisting of 1-24 kernels/ear, a medium-range consisting of 25-39 kernels/ear, and a high-range consisting of 40 or more kernels/ear.

## COc1cc2c(c(OC)c1OC)-c1ccc(OC)c(=O)cc1[C@@H](NC(C)=O)CC2 [colchicine, (S)-N-(5,6,7,9-tetrahydro-1,2,3,10-tetramethoxy-9-oxobenzo (a)heptalen-7-yl) acetamide]
[1]
  fertility rates for self-pollinated D0 plants: 15-20%

B1: ZM-ODP2-(266-668):At-CBF1a: fusion protein (SEQ ID NO: 15) of truncated ZM-ODP2 and C-repeat/DRE binding factor domain At-CBF1a; expressed from plasmid RV048759 under PvEC1 promoter (protein)
chain: MDTFGQRTSIYRGVTRHRWTGRYEAHLWDNSCRREGQTRKGRQVYLGGYDKEEKAARAYDLAALKYWGATTTTNFPVSNYEKELEDMKHMTRQEFVASLRRKSSGFSRGASIYRGVTRHHQHGRWQARIGRVAGNKDLYLGTFSTQEEAAEAYDIAAIKFRGLNAVTNFDMSRYDVKSILDSSALPIGSAAKRLKEAEAAASAQHHHAGVVSYDVGRIASQLGDGGALAAAYGAHYHGAAWPTIAFQPGAASTGLYHPYAQQPMRGGGWCKQEQDHAVIAAAHSLQDLHHLNLGAAGAHDFFSAGQQAAAAAMHGLGSIDSASLEHSTGSNSVVYNGGVGDSNGASAVGGSGGGYMMPMSAAGATTTSAMVSHEQVHARAYDEAKQAAQMGYESYLVNAENNGGGGGGGSGGGGSGGGGSTCAKDIQKAAAEAALAFQDETCDTTTTNHGLDMEETMVEAIYTPEQSEGAFYMDEETMFGMPTLLDNMAEGMLLPPPSVQWNHNYDGEGDGDVSLWSY
[2]
  average haploid induction rate: 31.3%
[3]
  average haploid induction rate: 33.9%

B2: ZM-ODP2-(266-669): truncated maize Ovule Development Protein 2 polypeptide (SEQ ID NO: 2) encoded by ZM-ODP2 (TR5); expressed from plasmid RV027603 under egg cell promoter (protein)
chain: MDTFGQRTSIYRGVTRHRWTGRYEAHLWDNSCRREGQTRKGRQVYLGGYDKEEKAARAYDLAALKYWGATTTTNFPVSNYEKELEDMKHMTRQEFVASLRRKSSGFSRGASIYRGVTRHHQHGRWQARIGRVAGNKDLYLGTFSTQEEAAEAYDIAAIKFRGLNAVTNFDMSRYDVKSILDSSALPIGSAAKRLKEAEAAASAQHHHAGVVSYDVGRIASQLGDGGALAAAYGAHYHGAAWPTIAFQPGAASTGLYHPYAQQPMRGGGWCKQEQDHAVIAAAHSLQDLHHLNLGAAGAHDFFSAGQQAAAAAMHGLGSIDSASLEHSTGSNSVVYNGGVGDSNGASAVGGSGGGYMMPMSAAGATTTSAMVSHEQVHARAYDEAKQAAQMGYESYLVNAENNGGG
modifications: Zea mays
notes: expressed from plasmid RV027603 under egg cell promoter
[4]; % of the hemizygous T1 group
  self-pollinated hemizygous D0/T1 plants that produced 40 or more D1/T2 kernels: 83%
[4]; hemizygous T1 plants, across 8 events of RV027603, self-pollinated, no artificial chromosome doubling treatment
  average level of fertile hemizygous T1 plants: 14.9%
[4]; null T1 plants lacking T-DNA of RV027603, same 8 events, self-pollinated
  level of fertile null T1 plants (produced mature, intact seed): 3.2% and 3.17%
[4]; of 38 self-pollinated D0/T1 plants
  self-pollinated hemizygous D0/T1 plants that produced 40 or more D1/T2 kernels (count): 31
[2]
  average haploid induction rate: 3.5%
[2]; per event
  Haploid Induction Rate (%): 2.5% and 2.4% and 1.9% and 4.8% and 0.6% and 5.0% and 7.0%
[3]
  average haploid induction rate: 15.1%
